Source: paper PMC4267786

Molecular target: native apolipoprotein D (apoD) from human plasma (human) (UniProt P05090)
Assay: ELISA; detergent-free dual-specific ELISA with purified components; capture anti-apoD D544, detection anti-apoB LDL20-biotin; LDL 333 ng/ml (or VLDL 1000 ng/ml, also with detergent) alone or with apoD 100 ng/ml, recombinant apoD 100 ng/ml, HDL2 or HDL3 1000 ng/ml; read as absorbance relative to LDL alone

UniProt P05090, sequence (P05090 21-189): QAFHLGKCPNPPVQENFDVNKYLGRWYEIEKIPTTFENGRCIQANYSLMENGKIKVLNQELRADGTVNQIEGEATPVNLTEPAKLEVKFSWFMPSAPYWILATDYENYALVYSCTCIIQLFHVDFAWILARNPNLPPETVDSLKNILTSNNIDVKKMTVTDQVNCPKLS

fold enhancement of LDL binding against LDL alone: 6 fold
Substance: purified low density lipoprotein (LDL) (complex)
